# Reference: paper PMC6336718
# Legend:
# [1] = target: Bacillus anthracis zinc uptake regulator protein (BaZur) (Bacillus anthracis (Sterne 34F2)); experiment: SEC; […] (50 mM Tris HCl pH 8.0, 150 mM NaCl, 5% glycerol), […]
# [2] = target: Bacillus anthracis zinc uptake regulator protein (BaZur) (Bacillus anthracis (Sterne 34F2)); experiment: native gel or EMSA
substance,measurement,setting,value
Bacillus anthracis zinc uptake regulator protein (BaZur) (natural protein),stoichiometry N,[1],2
same,stoichiometry N,[2],2
